The series has as its target T1, DasR (Streptomyces verticillus ATCC 15003, UniProt A0A7M1Y6D7 1-256).
T1 sequence: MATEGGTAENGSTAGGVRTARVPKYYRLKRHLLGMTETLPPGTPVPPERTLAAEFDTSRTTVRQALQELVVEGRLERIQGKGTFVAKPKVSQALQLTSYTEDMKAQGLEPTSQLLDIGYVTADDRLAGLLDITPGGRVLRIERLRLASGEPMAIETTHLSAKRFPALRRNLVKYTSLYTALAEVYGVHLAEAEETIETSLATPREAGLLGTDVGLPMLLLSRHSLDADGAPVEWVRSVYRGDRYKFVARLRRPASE
As to the kind of experiment: EMSA; EMSA buffer (composition, pH and temperature not given), 30 min incubation, 6% native polyacrylamide gel. The conditions noted are these: protein: recombinant, tags: C-terminal 6xHis (introduced by reverse primer), chain copies: 2, blunt.

B1: PDasA (dsDNA)
DNA 1: CCAAAAGGTCTAGGCCAAGCTGCGGGCACTGGTCTAAACCATTAAAGACCACTTTTCGGTCCTGAGGAGA
DNA 2: TCTCCTCAGGACCGAAAAGTGGTCTTTAATGGTTTAGACCAGTGCCCGCAGCTTGGCCTAGACCTTTTGG
With B1, the binding result (label: 5'-Cy5) is “binds”.

B2: PBlmR (dsDNA)
DNA 1: GAGAGCACTGTAAGCCCGAACCCGCAAGGATGACGAATTGCAAAATTGTGCAAGTCGCTACATGATGGTCCGGCTGTGCCCGCAGGTAGCCGCGGGCACAGCACCAGACGCTGCCTCCGCGCACCGCGCGGGAGGCCCGGTGAGGCGAGAGGCTGAGGTTCC
DNA 2: GGAACCTCAGCCTCTCGCCTCACCGGGCCTCCCGCGCGGTGCGCGGAGGCAGCGTCTGGTGCTGTGCCCGCGGCTACCTGCGGGCACAGCCGGACCATCATGTAGCGACTTGCACAATTTTGCAATTCGTCATCCTTGCGGGTTCGGGCTTACAGTGCTCTC
As to B2, the binding result is reported as “no binding”.
